Assay: yeast display, Sf9 membrane polyspecificity reagent, FACS + sequencing; frameworks hold sequencing errors
Summary of the method: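 Galactose-induced (36–48 hours) yeast carrying a synthetic nanobody display library were exposed to 10% biotinylated, detergent-solubilized Sf9 membrane reagent at 4 °C for 1 hour. FACS followed streptavidin microbead enrichment, using low and high (top ~1%) gates for expression (anti-HA) and reagent binding (streptavidin). Colony PCR, MiSeq 2 × 250 sequencing and CDR-length filtering followed. Labels for polyreactivity reflect the gate of origin.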

Sequence	polyreactivity (PSR sort gate)
QVQLVESGGGLVQAGGSLRLSCAASGRPFASYALGWYREAPGKERELVAVITRGVRTYYADSVKGRFTISRDNAKNTVYLQMNSLKPEDTAVYSCAKERYNANYDTSLYDYWGQGTQVTVSS	low polyreactivity
QVQLVESGGGLVQAGGSLRLSCAASGRPFGGNTMGWYRQAPGKERALVAAISFSGGSTYYADSVKGRFSSSRDNAKNTVYFQMNSLKPEDTAVYYCARDDYSHSFLTYDYWGQGTQVTVSS	low polyreactivity
QVQLVESGGGLVQAGGSLRLSCAASGRPFGRYAMGWYRPAPGKERELVAAITGSGGSTYYADSVKGRYTMSRDNAKNTVYLQMNSLKPEDTAVYYCAAPQRYYYTAMGYWGQGTQVTVSS	high polyreactivity
QVQLVESGGGLVQAGGSLRLSCAASGRPFRLNGMGWYRQAPGKERELVAAITWSGGRTYYADSVKGRFTISRDNAKTTVYLQMNSLKPEDTAVYDCAADYRYKSHWWYRRFDYWGQGTQVTVSS	high polyreactivity
QVQLVESGGGLVQAGGSLRLSCAASGRSFDVNAMGWYRQAPGKERELVAAISTRGGGTYYADSVKGRFTISRDNAKTTVYLQMNSLKPEDTAVYYCNVVRRYGGRGFDYWGQGTQVTVSS	low polyreactivity
QVQLVESGGGLVQAGGSLRLSCAASGRSFDWDVLGWYSQVPGKERELVAAIDDSGGSTYYADSVKGRFTISRDNAKNTVYLQMNSLKPEDTAVYYCAAASYEYALDEHMDYWGQGTQVTGSS	low polyreactivity
QVQLVESGGGLVQAGGSLRLSCAASGRSFKKYAMGWYRQAPGKERELVAAITASGGSTYYADSVKGRYTISRDNAKNTVYLQMNSLTPEDTAVYYCAAYAYGVWHSQDGGNYWGQGTQVTVSS	low polyreactivity
QVQLVESGGGLVQAGGSLRLSCAASGRSFSPYAMGWYRQAPGKERELVAAISYDDGITYYADSVKGRFTISRDTAKNTVYLQMNSLKPEDTAVYYCAADSVTRPAGDYWGQGTQVTVSS	low polyreactivity
QVQLVESGGGLVQAGGSLRLSCAASGRSFSYNAMGWYRQAPGKERELVAAISYGGGRTYYADSVKGRFTISRDNAKNTVYLQMNSLKPEDTAVYYCNRYGRQYDFYYWGQGTQVSVSS	high polyreactivity
QVQLVESGGGLVQAGGSLRLSCAASGRSFTGNAMGWYRQAPGKERELVAAISWRGARTYYADSVKGRFTISRDNAKNTVYFQMNSLKPVDTGVYYCAAAYRGYARHDYWGQGTQVTVSS	high polyreactivity
QVQLVESGGGLVQAGGSLRLSCAASGRSFTGYAMGWYRQATGKERELVASISDSGASTYYADSVKGRFTISRDNAKNTVYLLMNSLKPEDTAVFYCAASYPSYNWSVGDDDYWGQGTQVTVSS	low polyreactivity
QVQLVESGGGLVQAGGSLRLSCAASGRSFYLYAMGWYRQAPGKERELVASISWNGGSTYYADSVKGRFTISRDNAKNTVYLQMNSLKPEDTAVYYCATDSHRSRLNRPYQLFPAYYYWGQGTQVTVSS	low polyreactivity
QVQLVESGGGLVQAGGSLRLSCAASGRSFYRYVMGWYRQAPGTERELVAAMTWSGGSTYYADSVKGRFTISRDNAKNTVYLQMNSLKPEDTAVYYCAADWSTWGVDYWGQGTQVTVSS	low polyreactivity
QVQLVESGGGLVQAGGSLRLSCAASGRSIKYYAMGWYRQAPGKERELVAAIRSTGGSTYYADSVKGRFTISRDNAKNTVYLQMNSLKPEDTAVYYCNARRYPRYVFSRYVYWGQGTQVNVSS	high polyreactivity
QVQLVESGGGLVQAGGSLRLSCAASGRTCGGYAMGWYRQEPGNERELVAAISYRGARTYYADSVKGRFTISRDNAKNTVYLQMNSRKPEDTAVYYCAASRPGLRTPGQMGYWGQGTQVTVSS	high polyreactivity
QVQLVESGGGLVQAGGSLRLSCAASGRTCRRYTIGWYRQAPGKERELVAAITSGGRTNYADSVKGRFTISRDNAKNTVYLQMNSLKPEDTAVYYCNAQNEIWRVTFSPYDRWGYDYWGQGTQVTVSS	low polyreactivity

Sequence	polyreactivity (PSR sort gate)
QVQLVESGGGLVQAGGSLRLSCAASGRTFAANTMGWYRQAPGKERELVAAINSGGSTYYADSVKGRFTISRDNAKNTVYLHMNSLKPEATAVYYCAVSWWEVPRIFGYSSRYDYWGQGTQVTVSS	high polyreactivity
QVQLVESGGGLVQAGGSLRLSCAASGRTFAAYAMGWYIQSPGKERELVAAISSTSGNTYYADSVKGRFTISRDNAKNTVYLQMNSLKPEDTAVYYCNAQRRFNANYWYDYWGQGTQVTVSS	high polyreactivity
QVQLVESGGGLVQAGGSLRLSCAASGRTFAAYAMGWYRQAPGKEREFVADITYSGGSTTYADSVKGRFTISRDNAKNTVYLLMNSLNPEDTAVYYCNKLAYTPGWRGFVWYDYWGQGTQVSVSS	low polyreactivity
QVQLVESGGGLVQAGGSLRLSCAASGRTFAFNAMGRYRQAPGKEMELVAAISRSGGSTYYADSVKGRFTISRDNAKNTVYLQMNSLKPEDTAVYYCNAYYNRYPGYDYWGQGTQVTVSS	high polyreactivity
QVQLVESGGGLVQAGGSLRLSCAASGRTFAFNAMGWYRQAPGKERELVATISWSGGSTYYADSVKGRFTISRDNAKNTVYLQMNSLKPEDTAVYYCAKVVRGSNDYDYWGQGTQVTVSS	high polyreactivity
QVQLVESGGGLVQAGGSLRLSCAASGRTFAFYAMGWYRQAPGKERELVASISSSGDRTYYADSVKGRFTISRVNAKNTVYLQMNSLKPEDTAVYYCAARWRYTYYYWGQGTQVTVSS	high polyreactivity
QVQLVESGGGLVQAGGSLRLSCAASGRTFAGNAMGWYRQAPGKEREFVASITASGVNTYYADSVKGRFTISRDNAKNTVYLQMNSLKPEDTAVYYCNKRNRWTPFYTYDYWGQGTQVTVSS	low polyreactivity
QVQLVESGGGLVQAGGSLRLSCAASGRTFAGYAMGWYRQAPGKERELVAAISGSGGRTYYADSVKGRFTISRDNAKNTVYLQMNSLKPEDTAVYYCAASQRVYIARSDYWGQGTQATVSS	high polyreactivity
QVQLVESGGGLVQAGGSLRLSCAASGRTFAGYAMGWYRQAPGKERELVAGIRRSGDSTYYADSVKGRFTISRDNAKNTVYLQMNSLKPEDTAVYYCAAAPISKYGPYRGTGYRMGYWGQGTQVTVSS	high polyreactivity
QVQLVESGGGLVQAGGSLRLSCAASGRTFAGYTMGWYRQAPGKERELVAAITKSGGSTYYADSVKGRFTISRDNEKNTVYLQMNSLKPEDTAVYYCAARYIPSRYGTGCGYYSWGQGTQVTVSS	high polyreactivity
QVQLVESGGGLVQAGGSLRLSCAASGRTFAHNAMGWYRQAPGKERELVAAITWSGGTTYYADSVKGRFTISRDNAKNTVYLHMNSLKPEDTAVYYCNTYSYQPDPKYDYWGQGTQVTVSS	low polyreactivity
QVQLVESGGGLVQAGGSLRLSCAASGRTFAHNAMGWYRQAPGKERELVAAITWSGGTTYYADSVKGRFTISRDNAKNTVYLQMNSLKPEDTAVYYCNTYSYQPDPKYDYWGQGTQVTVSS	low polyreactivity
QVQLVESGGGLVQAGGSLRLSCAASGRTFAIYAMGWYRQAPGKERELVAAIRKRGSITYYADSVKGRFTISRDNAKNTVYLQMNSLKPEDTAVYYCAVDYWGQGTQVTVSS	high polyreactivity
QVQLVESGGGLVQAGGSLRLSCAASGRTFAIYTRGWYRQAPGKERELVASITSSGASTYYADSVKGRFTISRDNAKNTVYLQMNSLKPEYTAVYYCAAGWYQGFDYWGQGTQVTVSS	high polyreactivity
QVQLVESGGGLVQAGGSLRLSCAASGRTFAKYAMGWYRQAPGKEREWVAAINSSGGSTYYADSVKGRFTISRDNAKNTVYLQMNSLKPEDTAVYYCAKEYYSYDVYLGVSYVGRYDYWGQGTQVTVSS	low polyreactivity
